Legend:
FD1 = assay: competition
RD1 = assay: competition
RD3 = assay: competition
FD3 = assay: competition
[1] = target: LPA2 6-mer (Homo sapiens); assay: competition
RD2 = assay: competition
FD2 = assay: competition
[2] = target: Claudin23 10-mer (Homo sapiens)
CST = assay: competition
CAT = assay: competition
[3] = target: LPA2 10-mer (Homo sapiens)

Ki (FD1) | Ki (RD1) | Ki (RD3) | Ki (FD3) | Ki [1] | Ki (RD2) | Ki (FD2) | Kd [2] | Ki (CST) | Ki (CAT) | Kd (FD2 8-mer) | Kd [3] | Binder
600 µM | 1.8 µM | 6.8 µM | > 1000 µM | 47.4 µM | 2.7 µM | > 1000 µM | 3.6 µM | – | – | – | – | MAGI-3 PDZ6 (M3P6) PDZ6, Q5TCQ9 (protein) GCYPVELERGPRGFGFSLRGGKEYNMGLFILRLAEDGPAIKDGRIHVGDQIVEINGEPTQGITHTRAIELIQAGGNKVLLLLRPGTGLI
14.2 µM | 5.4 µM | 4.6 µM | 9.1 µM | 28.4 µM | 12.5 µM | 6.8 µM | – | 54.8 µM | 254 µM | 3.6 µM | 11.5 µM | NHERF-2 PDZ2 (N2P2) PDZ2, Q15599 (protein) LRPRLCHLRKGPQGYGFNLHSDKSRPGQYIRSVDPGSPAARSGLRAQDRLIEVNGQNVEGLRHAEVVASIKAREDEARLLVVDPETD
